{"source": "patent US20210300999A1", "molecular_target": "SARS-CoV-2 prefusion-stabilized trimeric spike ectodomain (S2Pecto) (SARS-CoV-2) (UniProt P0DTC2)", "assay": "ELISA on coated antigen"}
{"substance": "rCR3022 (recombinant form of the cross-reactive SARS-CoV SRBD mAb CR3022) (antibody)", "values": [{"measurement": "EC50", "result": 0.0102, "unit": "µg/mL"}]}
